# PMC4227867, “Analysis of Nidogen-1/Laminin γ1 Interaction by Cross-Linking, Mass Spectrometry, and Computational Modeling Reveals Multiple Binding Modes” (PLoS ONE, 2014)
# T1: full-length nidogen-1 (murine, UniProt P10493 29-1245)
# T1 construct: For photo-cross-linking the protein was made in Leu- and Met-depleted medium with photo-Met and photo-Leu; 13-25% of all leucines and methionines were partially replaced; also called entactin; source: HEK 293 EBNA cells, purified (Nickel-NTA Superflow); not shown: (His)6, N-terminal, kept
# T1 sequence (looked up): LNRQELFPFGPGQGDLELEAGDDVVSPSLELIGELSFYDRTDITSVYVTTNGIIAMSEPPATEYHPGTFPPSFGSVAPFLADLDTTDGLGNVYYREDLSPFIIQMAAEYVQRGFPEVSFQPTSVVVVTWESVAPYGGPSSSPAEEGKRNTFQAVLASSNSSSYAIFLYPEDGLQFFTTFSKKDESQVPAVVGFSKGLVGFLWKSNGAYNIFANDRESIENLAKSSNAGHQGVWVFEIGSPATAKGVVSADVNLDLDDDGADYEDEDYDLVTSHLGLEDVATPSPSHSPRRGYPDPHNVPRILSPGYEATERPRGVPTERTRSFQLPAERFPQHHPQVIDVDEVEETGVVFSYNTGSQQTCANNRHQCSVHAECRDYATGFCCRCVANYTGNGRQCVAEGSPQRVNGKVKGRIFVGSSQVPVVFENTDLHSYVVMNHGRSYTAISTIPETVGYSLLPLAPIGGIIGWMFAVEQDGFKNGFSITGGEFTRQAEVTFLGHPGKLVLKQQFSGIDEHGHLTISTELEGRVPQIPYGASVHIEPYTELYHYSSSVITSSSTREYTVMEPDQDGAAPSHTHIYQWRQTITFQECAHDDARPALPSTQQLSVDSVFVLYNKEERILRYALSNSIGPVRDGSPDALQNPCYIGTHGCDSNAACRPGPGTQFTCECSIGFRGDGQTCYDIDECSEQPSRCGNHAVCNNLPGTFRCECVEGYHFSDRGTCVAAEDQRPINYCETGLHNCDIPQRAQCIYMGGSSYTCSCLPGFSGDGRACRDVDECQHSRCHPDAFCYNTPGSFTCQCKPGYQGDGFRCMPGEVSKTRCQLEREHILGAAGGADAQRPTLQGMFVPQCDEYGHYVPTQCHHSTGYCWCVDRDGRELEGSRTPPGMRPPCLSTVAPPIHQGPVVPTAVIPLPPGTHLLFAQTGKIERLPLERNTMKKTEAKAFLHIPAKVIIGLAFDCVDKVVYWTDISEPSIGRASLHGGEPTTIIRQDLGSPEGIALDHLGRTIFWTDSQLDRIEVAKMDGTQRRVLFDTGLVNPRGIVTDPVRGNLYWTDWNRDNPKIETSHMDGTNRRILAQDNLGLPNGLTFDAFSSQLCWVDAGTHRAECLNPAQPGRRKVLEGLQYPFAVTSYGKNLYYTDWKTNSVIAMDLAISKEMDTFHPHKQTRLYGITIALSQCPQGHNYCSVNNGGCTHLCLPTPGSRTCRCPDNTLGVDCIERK
# Assays:
# full-length nidogen-1 [1] = target: T1, full-length nidogen-1; assay: SPR; nidogen-1 immobilised by amine coupling on a CM5 chip; laminin variants as mobile analytes; single-cycle kinetics, 25°C, 20 mM HEPES, 100 mM NaCl, 0.05% Tween 20, pH 7.5; 1:1 binding model; apparent Kd
# [2] = target: laminin γ1 LEb2–4 N836D (murine); assay: ELISA; laminin fragments coated at 10 µg/ml in TBS overnight at 4°C; nidogen-1 0.03 nM to 234 nM in TBS-T/1% BSA, 1 h at room temperature; detected by anti-(His)6 antibody; apparent Kd
# [3] = target: laminin γ1 short arm (murine); assay: as above
# full-length nidogen-1 [4] = target: T1, full-length nidogen-1; assay: as above; conditions: both partners purified
molecule,measurement,setting,value
laminin γ1 short arm (domain or fragment),Kd,full-length nidogen-1 [1],12 nM
full-length nidogen-1 (natural protein) LNRQELFPFGPGQGDLELEAGDDVVSPSLELIGELSFYDRTDITSVYVTTNGIIAMSEPPATEYHPGTFPPSFGSVAPFLADLDTTDGLGNVYYREDLSPFIIQMAAEYVQRGFPEVSFQPTSVVVVTWESVAPYGGPSSSPAEEGKRNTFQAVLASSNSSSYAIFLYPEDGLQFFTTFSKKDESQVPAVVGFSKGLVGFLWKSNGAYNIFANDRESIENLAKSSNAGHQGVWVFEIGSPATAKGVVSADVNLDLDDDGADYEDEDYDLVTSHLGLEDVATPSPSHSPRRGYPDPHNVPRILSPGYEATERPRGVPTERTRSFQLPAERFPQHHPQVIDVDEVEETGVVFSYNTGSQQTCANNRHQCSVHAECRDYATGFCCRCVANYTGNGRQCVAEGSPQRVNGKVKGRIFVGSSQVPVVFENTDLHSYVVMNHGRSYTAISTIPETVGYSLLPLAPIGGIIGWMFAVEQDGFKNGFSITGGEFTRQAEVTFLGHPGKLVLKQQFSGIDEHGHLTISTELEGRVPQIPYGASVHIEPYTELYHYSSSVITSSSTREYTVMEPDQDGAAPSHTHIYQWRQTITFQECAHDDARPALPSTQQLSVDSVFVLYNKEERILRYALSNSIGPVRDGSPDALQNPCYIGTHGCDSNAACRPGPGTQFTCECSIGFRGDGQTCYDIDECSEQPSRCGNHAVCNNLPGTFRCECVEGYHFSDRGTCVAAEDQRPINYCETGLHNCDIPQRAQCIYMGGSSYTCSCLPGFSGDGRACRDVDECQHSRCHPDAFCYNTPGSFTCQCKPGYQGDGFRCMPGEVSKTRCQLEREHILGAAGGADAQRPTLQGMFVPQCDEYGHYVPTQCHHSTGYCWCVDRDGRELEGSRTPPGMRPPCLSTVAPPIHQGPVVPTAVIPLPPGTHLLFAQTGKIERLPLERNTMKKTEAKAFLHIPAKVIIGLAFDCVDKVVYWTDISEPSIGRASLHGGEPTTIIRQDLGSPEGIALDHLGRTIFWTDSQLDRIEVAKMDGTQRRVLFDTGLVNPRGIVTDPVRGNLYWTDWNRDNPKIETSHMDGTNRRILAQDNLGLPNGLTFDAFSSQLCWVDAGTHRAECLNPAQPGRRKVLEGLQYPFAVTSYGKNLYYTDWKTNSVIAMDLAISKEMDTFHPHKQTRLYGITIALSQCPQGHNYCSVNNGGCTHLCLPTPGSRTCRCPDNTLGVDCIERK,Kd,[2],34 nM
same,Kd,[3],1.1 nM
"laminin γ1 LEb2–4 (domain or fragment, murine, For photo-cross-linking made with photo-Met and photo-Leu partially incorporated; the limits of LEb2–4 may be marked there; also called laminin γ1 LEb2–4 wild type; LEb2–4 fragment; source: HEK 293 EBNA cells, purified (Strep-Tactin sepharose)) QPCPCPGGSSCAIVPKTKEVVCTHCPTGTAGKRCELCDDGYFGDPLGSNGPVRLCRPCQCNDNIDPNAVGNCNRLTGECLKCIYNTAGFYCDRCKEGFFGNPLAPNPADKCKACACNPYGTVQQQSSCNPVTGQCQCLPHVSGRDCGTCDPGYYNLQSGQGCER",Kd,full-length nidogen-1 [4],1.4 nM
"laminin γ1 short arm N836D (domain or fragment, Secreted from HEK293 EBNA cells, so disulfide-bonded LE modules and likely N-glycans. Double Strep tag II omitted. Paper numbering (Asn-836) is one higher than UniProt; classical Asn-802 + 33-residue) AMDECADEGGRPQRCMPEFVNAAFNVTVVATNTCGTPPEEYCVQTGVTGVTKSCHLCDAGQQHLQHGAAFLTDYNNQADTTWWQSQTMLAGVQYPNSINLTLHLGKAFDITYVRLKFHTSRPESFAIYKRTREDGPWIPYQYYSGSCENTYSKANRGFIRTGGDEQQALCTDEFSDISPLTGGNVAFSTLEGRPSAYNFDNSPVLQEWVTATDIRVTLNRLNTFGDEVFNEPKVLKSYYYAISDFAVGGRCKCNGHASECVKNEFDKLMCNCKHNTYGVDCEKCLPFFNDRPWRRATAESASESLPCDCNGRSQECYFDPELYRSTGHGGHCTNCRDNTDGAKCERCRENFFRLGNTEACSPCHCSPVGSLSTQCDSYGRCSCKPGVMGDKCDRCQPGFHSLTEAGCRPCSCDLRGSTDECNVETGRCVCKDNVEGFNCERCKPGFFNLESSNPKGCTPCFCFGHSSVCTNAVGYSVYDISSTFQIDEDGWRVEQRDGSEASLEWSSDRQDIAVISDSYFPRYFIAPVKFLGNQVLSYGQNLSFSFRVDRRDTRLSAEDLVLEGAGLRVSVPLIAQGNSYPSETTVKYIFRLHEATDYPWRPALSPFEFQKLLNNLTSIKIRGTYSERTAGYLDDVTLQSARPGPGVPATWVESCTCPVGYGGQFCETCLPGYRRETPSLGPYSPCVLCTCNGHSETCDPETGVCDCRDNTAGPHCEKCSDGYYGDSTLGTSSDCQPCPCPGGSSCAIVPKTKEVVCTHCPTGTAGKRCELCDDGYFGDPLGSNGPVRLCRPCQCNDNIDPDAVGNCNRLTGECLKCIYNTAGFYCDRCKEGFFGNPLAPNPADKCKACACNPYGTVQQQSSCNPVTGQCQCLPHVSGRDCGTCDPGYYNLQSGQGCERCDCHALGSTNGQCDIRTGQCECQPGITGQHCERCETNHFGFGPEGCKPCDCHHEGSL",Kd,full-length nidogen-1 [4],45 nM
